Measurements taken from the supplement of paper PMC10567573.

B1: GLTSCR2 (parent)
chain: YNPSFEDHQTLLSAAHEVELQRQK

Variants of: B1
Test: protein stability index of a GFP-peptide fusion (GPS, HEK-293T) (PSI 1-6); higher = more stable
Conditions: c terminus: a fixed tail appended
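Further: lentivirally expressed fusions sorted by FACS into six bins by GFP to DsRed ratio, PSI derived from sequencing read proportions per bin multiplied by bin number.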

Protein stability index of substitutions, site by site:
R22: T 3.96 | W 2.71 | K 4.13 | Q 4.24 | A 4.18 | S 3.9 | N 4.32 | Y 3.16 | V 3.7
E6: K 2.72 | C 3.25 | F 2.51 | R 2.57 | S 3.15 | L 3.04 | G 3.42 | V 3
Q21: G 3.26 | W 3.06 | L 2.96 | C 3.61 | P 4.07 | R 3.95 | M 3.06
A15: M 2.93 | K 3.96 | V 2.53 | N 3.85 | P 3.61 | I 2.29 | D 4.54 | S 4.07 | F 2.47
A14: R 3.48 | T 4.04 | Q 3.86 | V 3.41 | H 3.64
L12: E 5.25 | A 4.41 | T 4.62 | P 5.16
L20: I 3.71 | G 4.16 | W 3.19 | R 3.89 | N 4.09 | V 3.63 | Y 3.74
K24: L 3.48 | D 4.28 | S 3.97 | T 3.98 | Y 3.18 | R 3.21 | E 4.36 | P 3.33
Q9: V 3.24 | M 2.72 | C 3.06 | S 4.09 | W 2.2 | F 2.45
E17: V 2.83 | T 3.36 | G 2.94 | W 2.73 | K 3.43 | Y 2.51
N2: E 4.46 | V 1.6 | M 4.34 | F 3.81 | W 4.2 | A 2.13
Q23: V 3.57 | L 3.21 | T 3.68 | Y 3.19 | W 2.95 | E 4.13 | R 3.5
D7: G 4.17 | M 3.23 | Q 4.27 | V 2.92 | L 3.35 | R 3.7
S4: M 4.21 | L 3.95 | H 4.26 | I 3.82 | V 4.02
Y1: F 3.65 | S 5.38 | Q 5.07 | P 5.16 | V 5.11 | K 4.87
H8: R 3.66 | F 1.99 | D 4.81 | T 3.11 | K 3.62 | I 2.53
V18: T 4.24 | E 4.44 | F 3.1 | D 4.13 | Q 3.76
H16: T 3.93 | W 2.51 | N 3.92 | V 2.97 | P 4.19 | E 4.38
P3: S 4.28 | T 5.01 | W 1.9 | G 4.35 | Y 3.97 | M 4.08 | N 4.45 | L 4.3
E19: S 3.39 | A 2.63 | Y 2.42 | W 2.75 | P 3.86 | H 3.39 | D 4.05 | F 2.49
F5: T 4.28 | E 4.9 | R 3.96 | V 3.83 | D 5.24 | L 3.43
T10: A 3.39 | P 3.7 | Q 3.47 | N 4.01 | L 2.71 | S 3.94 | G 3.87 | V 3.53 | I 3.05 | W 2.65 | M 2.87
L11: G 4.58 | E 5.13 | M 4.19 | R 4.19 | S 4.95 | Q 4.88 | Y 3.25 | F 2.81 | N 4.96
S13: H 3.47 | P 4.2 | M 3.08 | N 3.66 | A 3.21 | G 3.29 | I 2.45 | E 3.2 | T 4.17
